From patent publication EP3632934A1 (F. Hoffmann-La Roche AG, dated 2020)

Target: T1, human OX40 (Sino Biological Inc) (human, UniProt P43489 29-216)
T1 construct: Bought soluble protein used as SPR analyte; also called huOX40
T1 sequence: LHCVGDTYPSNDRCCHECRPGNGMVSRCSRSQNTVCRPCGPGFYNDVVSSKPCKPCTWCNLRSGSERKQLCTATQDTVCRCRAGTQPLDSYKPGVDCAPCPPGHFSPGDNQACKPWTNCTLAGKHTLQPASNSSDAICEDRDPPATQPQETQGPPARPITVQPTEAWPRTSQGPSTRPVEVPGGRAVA
Assay: SPR, Biacore; against parent 1A7.gr.1

B1: 1A7.gr.SGDS (antibody, V domains shown)
VH: EVQLVQSGAEVKKPGASVKVSCKASGYTFTDSYMSWVRQAPGQGLEWIGDMYPDSGDSSYNQKFRERVTITRDTSTSTAYLELSSLRSEDTAVYYCVLAPRWYFSVWGQGTLVTVSS
VL: DIQMTQSPSSLSASVGDRVTITCRASQDISNYLNWYQQKPGKAPKLLIYYTSRLRSGVPSRFSGSGSGTDFTLTISSLQPEDFATYYCQQGHTLPPTFGQGTKVEIK
fold loss of binding affinity against 1A7.gr.1: 2 fold
